These results are taken from patent publication US5162210A, “Process for enzymatic hydrolysis of starch to glucose” (Iowa State University Research Foundation, priority 1990, dated 1992).

What all share (assay): purified protein, by the assay type
Conditions in all cases: other: 45 C., pH 4.5, 0.05M sodium acetate buffer

Substrate in series [1]: OC[C@H]1O[C@H](O[C@H]2[C@H](O)[C@@H](O)[C@@H](O[C@H]3[C@H](O)[C@@H](O)[C@@H](O[C@H]4[C@H](O)[C@@H](O)[C@@H](O[C@H]5[C@H](O)[C@@H](O)[C@@H](O[C@H]6[C@H](O)[C@@H](O)[C@@H](O[C@H]7[C@H](O)[C@@H](O)C(O)O[C@@H]7CO)O[C@@H]6CO)O[C@@H]5CO)O[C@@H]4CO)O[C@@H]3CO)O[C@@H]2CO)[C@H](O)[C@@H](O)[C@@H]1O
Substrate in series [2]: OC[C@H]1O[C@H](OC[C@H]2OC(O)[C@H](O)[C@@H](O)[C@@H]2O)[C@H](O)[C@@H](O)[C@@H]1O
Substrate in series [3]: OC[C@H]1O[C@H](O[C@H]2[C@H](O)[C@@H](O)[C@H](O)O[C@@H]2CO)[C@H](O)[C@@H](O)[C@@H]1O

B1: Aspergillus awamori glucoamylase variant Ser184→His (Ser→His184, S→H184) (Aspergillus awamori; S208H) (protein)
chain: ATLDSWLSNEATVARTAILNNIGADGAWVSGADSGIVVASPSTDNPDYFYTWTRDSGLVLKTLVDLFRNGDTSLLSTIENYISAQAIVQGISNPSGDLSSGAGLGEPKFNVDETAYTGSWGRPQRDGPALRATAMIGFGQWLLDNGYTSTATDIVWPLVRNDLSYVAQYWNQTGYDLWEEVNGHSFFTIAVQHRALVEGSAFATAVGSSCSWCDSQAPEILCYLQSFWTGSFILANFDSSRSGKDANTLLGSIHTFDPEAACDDSTFQPCSPRALANHKEVVDSFRSIYTLNDGLSDSEAVAVGRYPEDTYYNGNPWFLCTLAAAEQLYDALYQWDKQGSLEVTDVSLDFFKALYSDAATGTYSSSSSTYSSIVDAVKTFADGFVSIVETHAASNGSMSEQYDKSDGEQLSARDLTWSYAALLTANNRRNSVVPASWGETSASSVPGTCAATSAIGTYSSVTVTSWPSIVATGGTTTTATPTGSGSVTSTSKTTATASKTSTSTSSTSCTTPTAVAVTFDLTATTTYGENIYLVGSISQLGDWETSDGIALSADKYTSSDPLWYVTVTLPAGESFEYKFIRIESDDSVEWESDPNREYTVPQACGTSTATVTDTWR
As a reminder, the Km is the concentration of substrate that gives half-maximal velocity. Regarding B1, the values for the Michaelis-Menten constant (Km) in series [1], in series [2] and in series [3] were 140 µM, 26700 µM and 900 µM, respectively.
